This is an account of results in a protein production outcome set (Wang et al. 2014).
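Further: failed if final PepcDB status was selected cloned or expressed and not failed if soluble or beyond.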

The nature of this data set: label from the status in PepcDB records.
For the sequence “MKPICIIPARSGSKGLPDKNMLFLSGKPMIFHTIDAAIESGMFDKKDIFVSTDSELYREICLERGISVVMRKPELSTDQATSYDMLKDFLSDYEDNQEFVLLQVTSPLRKSWHIKEAMEYYSSHDVDNVVSFSEVEKHPSLFTTLSDEGYAIDMVGADKGYRRQDLQPLYYPNGAIFISNKETYLREKSFFTSRTYAYQMAKEFSLDVDTRDDFIHVIGHLFFDYAIREKENKVFYKEGYSRLFNREASKIILGDSKTISTSLESYHNYSQGGVTLATMLENLPNFLTANVTEAFVSIGVNDLITGYSVEEIFSNFQKLYSLLAENKIKMRLTTIAYTLFRETVNNADIEKINQWLTEFCYQNQIPLLDINRFLSKDGNLNYHLTSDGLHFTQEANDLLQSQYQLFVDEVKTLLEHHHHHH”, the protein production entry is “not failed”.
Then “MKPIVIKRDGSKAPFNRDRIQAAVESAAEHADQEIAIYALNVALAVELKLRDYDEVHITEIQTLVENELMQGPYKALARSYIEYRHDRDVAREKQSK”, with “failed”.
For “MKPKSMKEKLVKDMMSILNLRIKMIDVNGLLKELDDALDKVVAKKEPESFLKPIISPIEDYQKSVRQIQAQFTDAPKFNEEGAYPQFLSCGLLEIKGKNGASMEFCLPKVYPFPPKSLYIEHEKDGQFLREMLMRLLSSAPLVQLEVILVDALSLGGIFNLARRLLHKDNDFIYQQRILTESKEIEEALKHLYEYLKVNLQEKLAGYKDFAHYNEEKKDRLPLKALFLSGVDALSQNALYYLEKIMRFGSKNGVLSFVNLESEKNNKSTEDLKRYAECFKDRTSFERLKYLNIEVINDHGIQSKHMKDFADKIKAYYEKKKAVKRELKDLQKDEKFWTESSQFKVSVPVGWDINHKEVCFEIGNEQNHTLICGRSGSGKSNFLHVLIQNLAFYYAPNEVQLFLLDYKEGVEFNAYTDPNILEHARLVSVASSVGYGMSFLNWLCKEMQERANLFKQFNVKDLSDYRKHGEIPRLIVVIDEFQVLFSDNKSTKAVEGHLNTLLKKGRSYGVHLILATQTMRGTDINRSIMAQIANRIALSMDAEDSNSILGDDAACELVRPEGIFNNNGGHQKHHTKMSIPKAPDDFKPFIKKIHRDFNQRNLVPVEHKIYNGEKPLEMPNTLKANEMRLHLGKEADYEQKDLMVGFENSESHLLVVSQDLSARIALMKLFAQNFKTANKELLFYNAEKRLARELDELKKHHITPMQGPLGSVLDTAMNPNSVLVIDNLNEAKELHDKIGVEKLRSFLEKATDNEQYCIIFAHDLKQIQANYDLSKLKELLNNHFKQRLAFRCNGENLSAIKKDLPLLTNELNALFVELSKDSHTEFRPFSL”, the protein production entry was “failed”.
Consider “MKPPADNNKEGAESHKLESESKPIWKSMSMFLVPLLLSNVLQSVGQLFGMVVVGRWLGVNDLAAISAFFPLFFLLVSFVIGIGSGSSILIGQAFGAKNEDRLKAIVGTTLTFTFIIGVLLAIIGSIFAMDIMRLMGTPENIIEISVHYARILFISMPVLFLYFAYTTFMRGTGDSKTPFYFLIVSTALNMILLPILIFGWLGAPKLDVYGAAYASVISTVITFIVMLVYLKKKNHPLQLDGTVRKYLRMDGELLKLLLRLGIPASINMILVSLSEIAVIAFVNRYGSDATAAYGVVNQVASYVQMPAVSLGITVSIFAAQSIGANQFDRLQKVVKAGIIMNYVIGGVLISLIYVFSRDILSLFLTSQTTIEIAHSLVMITLWSYLIFGHAQIISATMRASGTVLWPTVIGVVSIWLVEVPVAYYLSYHTSLGIEGIWIGYPAAFIVSLILQYAYYKLSWQKKRITRLVS”, for which the protein production entry is “not failed”.
As for “MKPRRKSALLWGAVAALSFLVLHQGYLLAGGAFLGVGPVAAVTVAVFVGGAAVSYYAEGRFGLFGWRR”, the protein production result is “failed”.
The value for “MKQEEDKFTGLPENAFRELKAGEVYNPLMSPSKNYPEVNFWSVTWGIAMAILFSAAAAYLGLKVGQVFEAAIPIAIIAVGVSGAAKRKNALGENVIIQSIGACSGVIVAGAIFTLPALYILQVKYPEMTVSFMQVFISSLLGGVLGILFLIPFRKYFVSDMHGKYPFPEATATTQVLVSGEKSGSQAKPLLMAGMIGGLYDFIVATFGWWNENFTTRVCGAGEMLAEKAKLVFKVNTGAAVLGLGYIVGLKYASIICAGSLAVWWIIIPGMSAIWGDSVLNAWNPEITSTVGMMSPEEIFKYYAKSIGIGGIAMAGVIGIIRSWGIIKSAVGLAAKEMGGKGNVEKNIVRTQRDLSMKIIAIGSILTLILIVLFFYFDIMQGNIVHTLVAIALVAGISFLFTTVAANAIAIVGTNPVSGMTLMTLILASVVMVAVGLKGPSGMVAALVMGGVVCTALSMAGGFITDLKIGYWLGSTPAKQETWKFLGTIVSAATVGGVMIILNKTYGFTSGALAAPQANAMAAVIEPLMSGVGAPWLLYGIGAILAIVLTFFKIPALAFALGMFIPLELNVPLVVGGAVNWYVTSRSKDTALNTERGEKGTLLASGFIAGGALMGVVSAAMRFGGINLVNEAWLNNTWSEVLALGAYALLILYFIKASMKVK” was “failed”; that for “MKQEETKRYESFKREFFHWFLAFSGDEPFSVAAGELLMMLKEELALQQAVLYLFDPSCDAFCPEAAAGRMPAAESIVAEEKQEIVVIDDGGPCIVVRLFFLLSEETRAMLELMYGKERHIDREWLKVLRTDLSSLFRKLSALSQRTSEENRYEQLHRFAAKIHSTMQIDDVLEEIICTLQNVYPAFTYHLLLSHDNHVCGNLPIKTLALDESEGQPAALRAFLTGQVQCEETAAPPRSVLYAPIKGVQAVYGVIQIIAPYAAPFPKREINFISLLAGTAGRALENAKLYEQSRRLVADLQLINDTMRQLNARPRLCEAIEYMVSQIKESFGADEVGFFLFADGKRELLRGSTPFFYNDLSALYVEWVEARLLSGNDILFAGDVRTSDFGPFRSIMAAPMMQNKEMKGVCIVLAYETYRFTFEMFKLLQSLVQHSTLAFMNAILREELEKLVVTDYLTKLYTRRYLDEAIQKSMEEDALGSFLLIDIDNFKQINDTYGHQTGDDVLVQVAKMIRTNIRDGDIAARWGGEELAVYLPKVALLDAIAIARRIVEKVREHTVPSVTVSCGLSSWRRHDHDDAEQLFKRADAALYMAKETGKNAIFVHDGDHLYRG” was “failed”; that for “MKQEETLTKVKVAEVTHSIFYAPLYVAESKGFFKEEGLDVDVNTTWGGDKTMTSLLSNGSDIALVGSETSIYVEAQGAKDPVINFAQLTQTDGTFLVAREDVEHFDWDQLKGKTFLGQRKGGMPQMVGEYVLNKHKIDPHKDIDLIQNIDFANIANAFASGTGEYVQLFEPQLLSLRKKASAISWLHSEKNQERFLIRLLWRNKAILEHHHHHH” was “failed”.
The value for “MKQIAFIGLGHMGAPMATNLLKAGYLLNVFDLVQSAVDGLVAAGASAARSARDAVQGADVVISMLPASQHVEGLYLDDDGLLAHIAPGTLVLECSTIAPTSARKIHAAARERGLAMLDAPVSGGTAGAAAGTLTFMVGGDAEALEKARPLFEAMGRNIFHAGPDGAGQVAKVCNNQLLAVLMIGTAEAMALGVANGLEAKVLAEIMRRSSGGNWALEVYNPWPGVMENAPASRDYSGGFMAQLMAKDLGLAQEAAQASASSTPMGSLALSLYRLLLKQGYAERDFSVVQKLFDPTQGQ” was “not failed”.
Turning to “MKQKNVYIVIGFMLFALFFGAANLIYPAFLGIYSGHQILWSIIGFCLTGVSLPLLGVIAVAKSGSGDVESLARPISKWYAIFYSSILYLSIGPFFAIPRTGATSFSVGIAPILGDNTTNKAIYAILFFGLSYFLAIKPSKLAENIGKFLTPTLLVVISILVIASFVHPAGNYGDAFNAGVGVNNAFKDFPFIAGLIQGYGTMDALASLVFAILVIEATKQFGAKTDKEMTKITLISGAIAILLLALVYIFVGRIGATSQSLFPFIDGSFTLHGNPVNGGQILSHASRFYLGGIGQAFLAVVIFLACLTTSTGLITSSAEYFHKLVPALSHIAWATIFTLLSAFFYFGGLSVIINWSAPVLFLLYPLTVDLIFLVLAQKCFNNDPIVYRTTIGLTFIPAIFDALLTLSQMTGLFHLPEAVVTFFQKTVPLGQFSMGWIIFAAIGFLIGLILSKTKKS”, the protein production entry was “failed”.
The value for “MKQLMLYCRSGFEKECAGEIQDKATQLEVYGFPRVKKNSGYVVFECYQDGDAEKLVKGLDFSSLIFARQMFAVAAEFEALPSEDRISPILAELSEFESFPRCGDLRIETPDTNEAKELLKFCRKFTVPMRQALRGKGLMWNKDNAKKPVLHICFVAPGHCYVGYSLPGNNSQFFMGIPRLKFPADAPSRSTLKLEEAFHVFIPRDEWDERLAPGMWGVDLGACPGGWTYQLVKRSMFVHCVDNGMMADSLMETGQIKHHMVDGFKFEPDRKNVTWIVCDMVEKPARVAHLMGQWLLKGWAKEAIFNLKLPMKGRYDEVLQDLENLKMFLIENKVKFKLQAKHLYHDREEITIHIQCLSNISPH” was “failed”; that for “MKQMNVVLIGGGTGLSVLARGLREFPIDITAIVTVADNGGSTGKIRDVMDIPAPGDIRNVIAALSDSESILTQLFQYRFGENQVDGHSLGNLVIAGMTNITNDFGHAIKELSKVLNIKGQVIPSTNASVQLNAVMEDGEIVHGETNIPKTHKKIDRVFLEPSDVEPMNEAIEALEQADLIVLGPGSLYTSVISNLCVKGISEALLRTSAPKLYVSNVMTQPGETDNYDVKEHIDALTRQVGEPFIDFVICSSESYSKDVLQRYEEKNSKPVAVHKEQLKDSGIRVLTASNLVEISNEHYVRHNTKVLSKMIYELALELTSTIRFTPSDKKK” was “not failed”; that for “MKQPNYYQDVKQFHQTFHHPGADQPTAIPLDRGVKRATWTAEEAVVEFLHQSSQNETEFLAAIETFKAGLDQAVKKSLKETYPVTEVERLVGQGDALTDALYFIMGSFVEAGLEPGPLFEIVQQANMAKLGPDGQPIFRESDQKVMKPDGWLPPEPQLEAEVVRQMKEKA” was “not failed”.
The value for “MKQVNVDVAVIGGGTAGLGSYRAAKAHTDSVVMIEGGPYGTTCARVGCMPSKLLIAAAESVHQIEKAPKFGIHPQGEIVINGREVMERVKFERDRFVGFVLEGVDEIPAEDKISGYAKFLDDNTLQVDDHTIINAKRIVIATGSRPAYPAVWNELGDRLIINDDVFNWDDLPKSVAVFGPGVIGLELGQALHRLGVETKLFGLGGQVGPVTDPEVMAYANKAFNEEFYLDADVKVESMKRITTESGEERVEIQFINKQGELETNIVEYVLAATGRRPNTDKLGLENTSIELDERGVPTADFYTLQTSLPTVFIAGDASNQLPLLHEAADQARIAGDNAGRFPEIRAGLRRSKISAVFSDPQIAMVGETYKEITTRLGTCGCFATGEVSFENQGRSRVMLRNKGILHVYGEQGTGRFLGAEMMGPNAEHLAHLLAWAHQNKMTVSEMLDMPFYHPVIEEGVRTALRDLNAKLHLGPEMIKHCMDCGPGC” was “failed”; that for “MKQWIAALLLMLIPGVQAAKPQKVTLMVDDVPVAQVLQALAEQEKLNLVVSPDVSGTVSLHLTDVPWKQALQTVVKSAGLITRQEGNILSVHSIAWQNDNIARQEAEQARAQANLPLENRSITLQYADAGELAKAGEKLLSAKGSMTVDKRTNRLLLRDNKTALSALEQWVAQMDLPVGQVELSAHIVTINEKSLRELGVKWTLADAQHAGGVGQVTTLGSDLSVATATTHVGFNIGRINGRLLDLELSALEQKQQLDIIASPRLLASHLQPASIKQESEIPYQVSSGESGATSVEFKEAVLGMEVTPTVLQKGRIRLKLHISQNVPGQVLQQADGEVLAIDKQEIETQVEVKSGETLALGGIFTRKNKSGQDSVPLLGDIPWFGQLFRHDGKEDERRELVVFITPRLVSSELEHHHHHH” was “not failed”.
With “MKRAYVLLIGLSMLLISLIVPFPLALSFVILAGLFIAHFSKMEEKEVNMIITATVSLFIGLLGGLLGSMIHHNISSTWTLLSAHGGLFLIALIGYFFMVLILMTLGSMIDKVISKARSKSL”, the protein production entry is listed as “failed”.
